Assays:
[1] = biological target: T1, antigenic peptide of amino acid sequence at positions 106-126 of a heavy chain of HLA-G molecules … (human); experiment: ELISA, peptide coated at 2 ug/ml, antibody stock 3.0 mg/mL titrated
T1 construct: Synthesized peptide, coated on ELISA plates at 2 ug/ml; also called immunogen
T1 peptide: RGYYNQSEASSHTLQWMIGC
Method: (§1) The antigen (SEQ No. 17 [sequence]) was diluted with the coating buffer, with the final concentration of 2 μg/ml, 100 ul/well, and placed at 4° C. overnight; washed with the wash buffer twice, blocked with the blocking buffer at 200 ul/well, incubated at 37° C. for 2 hours; then washed once with the wash buffer. The purified antibody was diluted by 2-fold starting from 200-fold (PBS), and the blank control (blank) was PBS, 100 ul/well, and incubated at 37° C. for 1 hour; and then washed 3 times with the wash buffer. The secondary antibody diluted with PBS by 20,000-fold was added, 100 ul/well, and incubated in a 37° C. incubator for 1 hour; taken out and washed 3 times with a wash buffer. Then the color development was performed with a developing solution of 100 ul/well for 5-15 minutes. Then 50 ul of stop solution was added to each well to stop. The absorbance value was measured at dual wavelengths (450, 630), and a chart was drawn for analysis.

HLA-G7 standard protein = biological target: T2, HLA-G7 standard protein (human, UniProt P17693-7 25-116, limits assumed); experiment: immunoblotting of standard proteins after denaturing PAGE
T2 construct: Standard protein run on denaturing PAGE for immunoblotting
Method: (§2) The denaturing PAGE electrophoresis of the standard proteins of HLA-G isoforms (HLA-G1, HLA-G2, HLA-G3, HLA-G4, HLA-G5, HLA-G6 and HLA-G7) was performed. After semi-dry electroporating, 5% skimmed milk powder was used to block at room temperature for 4 hours, and washed with 0.2% TBS (Tween-20 PBS).

HLA-G6 standard protein = biological target: T3, HLA-G6 standard protein (human, UniProt P17693-6 25-227, limits assumed); experiment: as above
T3 construct: Standard protein run on denaturing PAGE for immunoblotting
Method: as §2

HLA-G2 standard protein = biological target: T4, HLA-G2 standard protein (human, UniProt P17693-2 25-246, limits assumed); experiment: as above
T4 construct: Standard protein run on denaturing PAGE for immunoblotting
Method: as §2

HLA-G3 standard protein = biological target: T5, HLA-G3 standard protein (human, UniProt P17693-3 25-154, limits assumed); experiment: as above
T5 construct: Standard protein run on denaturing PAGE for immunoblotting
Method: as §2

[2] = biological target: T1, antigenic peptide of amino acid …; experiment: ELISA, peptide coated at 2 ug/ml, antibody titrated; logistic fit
Method: as §1

antibody dilution factor corresponding to 1/2 OD value [1]: 197000 fold dilution | binding result (HLA-G7 standard protein): no binding | binding result (HLA-G6 standard protein): no binding | binding result (HLA-G2 standard protein): no binding | binding result (HLA-G3 standard protein): no binding | Ka [2]: 9.87e+09 M⁻¹
B1: monoclonal antibody (YWHG-4) against HLA-G isoforms (HLA-G1, HLA-G4, HLA-G5) (antibody, V domains shown)
VH: VQLQQSGAEVVRPGTSVKVSCKASGYASTNYLVEWIKQRPGQGLEWIGVINPGSGRIYYSEKFKGKTTLTADKSSSNAYMQLSSLTSDDSAVYFCARHYGNSAWFAYWGQGTLVTVSA
VL: DIVITQDELSLPVSLGDQAAISCRSSQSIVHSNGNTYLEWYLQKPGQSPKLLIYKVSNRFSGVPDRFRGSGSGTDFTLKISRVEAEDLGVYYCFQASHVPYTFGGGTKLEIKR
notes: FITC-labeled in the flow cytometry; also called hybridoma CCTCC NO: 2021204

Reference: US20250289892A1 (TAIZHOU ENZE MEDICAL CENTER GROUP, published 2025)
